Results from WO2001096599A2.

Target: recombinant ED-B protein (UniProt P02751)
Assay: I-125 labelled antibody on a small column of ED-B sepharose, elution with TEA pH 11

Sequence of UniProt P02751 (P02751 1266-1356 limits assumed): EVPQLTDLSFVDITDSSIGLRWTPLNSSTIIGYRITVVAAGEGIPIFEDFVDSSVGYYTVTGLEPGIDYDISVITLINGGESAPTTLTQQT

L19, human recombinant antibody directed against the Extra Domain B
immuno-reactivity (% of labeled material that bound to the ED-B sepharose column and was eluted): 85 to 95%
